Experimental findings from patent publication US20240148828A1 (SHATTUCK LABS, published 2024) are described below.

The target of experiment [1] is T1, CD19 expressed on cells (Daudi, Raji, K562-CD19) (human, UniProt P15391 20-556).
T1 construct: whole, on cells
T1 sequence (looked up): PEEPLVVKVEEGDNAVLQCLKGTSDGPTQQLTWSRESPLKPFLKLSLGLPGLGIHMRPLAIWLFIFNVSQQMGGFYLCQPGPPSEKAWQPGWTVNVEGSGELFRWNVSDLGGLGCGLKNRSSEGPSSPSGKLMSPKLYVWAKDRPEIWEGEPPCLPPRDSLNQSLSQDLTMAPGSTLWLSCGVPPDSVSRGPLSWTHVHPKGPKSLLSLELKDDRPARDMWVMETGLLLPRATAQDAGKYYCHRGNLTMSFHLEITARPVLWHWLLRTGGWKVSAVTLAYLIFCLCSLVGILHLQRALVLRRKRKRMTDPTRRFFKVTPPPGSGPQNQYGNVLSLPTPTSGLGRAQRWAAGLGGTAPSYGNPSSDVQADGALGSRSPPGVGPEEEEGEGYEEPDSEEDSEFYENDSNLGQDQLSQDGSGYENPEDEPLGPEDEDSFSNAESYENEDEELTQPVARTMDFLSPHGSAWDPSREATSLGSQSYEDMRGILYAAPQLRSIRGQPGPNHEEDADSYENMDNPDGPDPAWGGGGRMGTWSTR
Kind of experiment: flow cytometry on RAJI cells (B7H3-negative, CD19-expressing), AF647 anti-Fc detection.

The target of experiment [2] is T2, B7H3 expressed on cells (OV-90, OVCAR3) (human, UniProt Q5ZPR3 29-534).
T2 construct: whole, on cells; also called B7H3+ OV90 tumor cells; B7H3+ OVCAR3 cells
T2 sequence (looked up): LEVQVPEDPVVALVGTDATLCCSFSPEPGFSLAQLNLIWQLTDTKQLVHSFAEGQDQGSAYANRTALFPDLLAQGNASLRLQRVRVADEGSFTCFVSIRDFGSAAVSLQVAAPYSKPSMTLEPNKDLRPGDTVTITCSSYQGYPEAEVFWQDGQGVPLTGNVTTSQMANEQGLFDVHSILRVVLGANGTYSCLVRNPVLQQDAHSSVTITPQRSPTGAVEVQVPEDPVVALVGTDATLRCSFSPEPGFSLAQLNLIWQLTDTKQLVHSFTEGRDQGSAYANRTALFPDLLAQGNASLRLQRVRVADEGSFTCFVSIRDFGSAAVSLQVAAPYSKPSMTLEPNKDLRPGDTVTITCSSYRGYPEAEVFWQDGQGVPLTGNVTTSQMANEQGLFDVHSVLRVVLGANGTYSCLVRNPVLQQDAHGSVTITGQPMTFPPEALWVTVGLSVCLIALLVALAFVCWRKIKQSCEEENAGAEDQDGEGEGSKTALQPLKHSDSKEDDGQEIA
Kind of experiment: flow cytometry on OV-90 cells.

In experiment [3] the target is T3, recombinant B7H3-His protein (UniProt Q5ZPR3 29-461, limits assumed).
T3 construct: not shown: His tag
T3 sequence (looked up): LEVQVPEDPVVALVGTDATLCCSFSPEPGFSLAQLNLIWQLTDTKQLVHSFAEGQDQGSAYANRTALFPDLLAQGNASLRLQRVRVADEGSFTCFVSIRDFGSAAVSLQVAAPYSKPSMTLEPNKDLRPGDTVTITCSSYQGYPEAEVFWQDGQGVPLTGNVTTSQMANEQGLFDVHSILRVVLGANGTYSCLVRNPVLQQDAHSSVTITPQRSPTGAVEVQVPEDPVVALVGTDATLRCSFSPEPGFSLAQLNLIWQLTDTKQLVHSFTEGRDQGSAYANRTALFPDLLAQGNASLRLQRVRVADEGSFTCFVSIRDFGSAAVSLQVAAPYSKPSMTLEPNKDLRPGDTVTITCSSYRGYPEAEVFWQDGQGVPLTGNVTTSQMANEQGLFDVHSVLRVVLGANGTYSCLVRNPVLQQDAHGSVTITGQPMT
Kind of experiment: MSD plate assay, plate-bound B7H3-His, detection with anti-BTN3A1 antibody.

Experiment [4] addresses T4, recombinant FAP-His protein (UniProt Q12884 26-760).
T4 construct: not shown: His tag
Briefly: MSD plate assay, plate-bound FAP-His, detection with anti-BTN3A1 antibody.

The target of experiment [5] is T1, CD19 expressed on cells (Daudi, Raji, …). Briefly: flow cytometry on Daudi cells.

T4 sequence (Q12884 26-760 limits assumed): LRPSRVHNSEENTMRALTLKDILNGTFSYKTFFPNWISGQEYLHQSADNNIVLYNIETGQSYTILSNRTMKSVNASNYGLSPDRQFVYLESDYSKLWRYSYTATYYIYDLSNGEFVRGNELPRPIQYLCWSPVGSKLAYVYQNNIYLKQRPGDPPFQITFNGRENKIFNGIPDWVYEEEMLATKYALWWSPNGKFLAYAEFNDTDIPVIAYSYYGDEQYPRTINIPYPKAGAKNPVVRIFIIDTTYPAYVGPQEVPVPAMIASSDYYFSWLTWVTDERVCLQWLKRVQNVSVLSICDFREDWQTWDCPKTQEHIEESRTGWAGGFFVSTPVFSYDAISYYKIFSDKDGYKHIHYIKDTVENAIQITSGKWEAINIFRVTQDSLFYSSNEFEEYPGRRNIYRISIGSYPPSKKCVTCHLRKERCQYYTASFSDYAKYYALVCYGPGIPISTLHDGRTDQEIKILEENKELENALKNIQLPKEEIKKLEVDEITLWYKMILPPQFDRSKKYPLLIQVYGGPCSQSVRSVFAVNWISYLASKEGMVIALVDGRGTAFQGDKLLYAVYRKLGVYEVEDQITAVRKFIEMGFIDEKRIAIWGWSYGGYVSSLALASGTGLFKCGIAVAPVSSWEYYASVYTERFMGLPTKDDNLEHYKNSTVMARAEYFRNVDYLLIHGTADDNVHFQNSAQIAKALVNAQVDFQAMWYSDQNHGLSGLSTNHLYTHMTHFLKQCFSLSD

B1: BTN2A1/3A1-Fc-B7H3scFv heterodimeric protein (Fc fusion)
chain 1: QFIVVGPTDPILATVGENTTLRCHLSPEKNAEDMEVRWFRSQFSPAVFVYKGGRERTEEQMEEYRGRTTFVSKDISRGSVALVIHNITAQENGTYRCYFQEGRSYDEAILHLVVAGLGSKPLISMRGHEDGGIRLECISRGWYPKPLTVWRDPYGGVAPALKEVSMPDADGLFMVTTAVIIRDKSVRNMSCSINNTLLGQKKESVIFIPESFMPSVSPCAGSGSRKGGKRGSKYGPPCPPCPAPEFLGGPSVFLFPPKPKDQLMISRTPEVTCVVVDVSQEDPEVQFNWYVDGVEVHNAKTKPREEQFNSTYRVVSVLTVLHQDWLSGKEYKCKVSSKGLPSSIEKTISNATGQPREPQVYTLPPSQEEMTKNQVSLTCLVKGFYPSDIAVEWESNGQPENNYKTTPPVLDSDGSFFLYSRLTVDKSRWQEGNVFSCSVLHEALHNHYTQKSLSLSLGKDEGGEDGSDIQMTQSPSFLSASVGDRVTITCKASQNVDTNVAWYQQKPGKAPKALIYSASYRYSGVPSRFSGSGSGTDFTLTISSLQPEDFAEYFCQQYNNYPFTFGQGTKLEIKSSGGGGSGGGGSGGGGSEVQLVESGGGLVQPGGSLRLSCAASGFTFSSFGMHWVRQAPGKGLEWVAYISSGSGTIYYADTVKGRFTISRDNAKNSLYLQMNSLRAEDTAVYYCARHGYRYEGFDYWGQGTTVTVSS
chain 2: not shown
notes: Produced by transient co-transfection of ExpiCHO cells; also called BTN2A1/3A1-Fc-B7H3scFv/B7H3scFv
B1: the binding result is given as “no binding” in experiment [1] and “binds” in experiment [2].

B2: BTN2A1/3A1-Fc-CD19scFv heterodimeric protein (Fc fusion)
chain 1: QFIVVGPTDPILATVGENTTLRCHLSPEKNAEDMEVRWFRSQFSPAVFVYKGGRERTEEQMEEYRGRTTFVSKDISRGSVALVIHNITAQENGTYRCYFQEGRSYDEAILHLVVAGLGSKPLISMRGHEDGGIRLECISRGWYPKPLTVWRDPYGGVAPALKEVSMPDADGLFMVTTAVIIRDKSVRNMSCSINNTLLGQKKESVIFIPESFMPSVSPCAGSGSRKGGKRGSKYGPPCPPCPAPEFLGGPSVFLFPPKPKDQLMISRTPEVTCVVVDVSQEDPEVQFNWYVDGVEVHNAKTKPREEQFNSTYRVVSVLTVLHQDWLSGKEYKCKVSSKGLPSSIEKTISNATGQPREPQVYTLPPSQEEMTKNQVSLTCLVKGFYPSDIAVEWESNGQPENNYKTTPPVLDSDGSFFLYSRLTVDKSRWQEGNVFSCSVLHEALHNHYTQKSLSLSLGKDEGGEDGSDIQMTQTTSSLSASLGDRVTISCRASQDISKYLNWYQQKPDGTVKLLIYHTSRLHSGVPSRFSGSGSGTDYSLTISNLEQEDIATYFCQQGNTLPYTFGGGTKLEITGGGSGGGSGGGSEVKLQESGPGLVAPSQSLSVTCTVSGVSLPDYGVSWIRQPPRKGLEWLGVIWGSETTYYNSALKSRLTIIKDNSKSQVFLKMNSLQTDDTAIYYCAKHYYYGGSYAMDYWGQGTSVTVSS
chain 2: not shown
notes: Secreted from Expi293 or CHO cells and purified; also called BTN2A1/3A1-Fc-CD19scFv3; BTN2A1/3A1-Fc-19scFv
B2: the binding result in experiment [3] is given as “no binding”; in experiment [4] it was “no binding”; in experiment [5], “binds”.
